Test [1] deals with PEAK3 tandem-pS69 : 14-3-3γ (K50E) complex (human). In words: ITC; ternary; CrkII NSH3 in the syringe titrated into the peptide:14-3-3γ complex left in the cell (16.8 µM) after the first titration; 25 °C, 20 mM HEPES pH 7.4, 150 mM NaCl, 1 mM TCEP; single binding site model. On the technique in general: In ITC the heat of successive injections is recorded.
Test [2] deals with PEAK1^IDR1 (residues 1082-1746), from insect cells, phosphorylated by Src (human) (UniProt Q9H792). In words: SPR; biotinylated PEAK proteins (with or without Src phosphorylation) captured with a biotin CAPture kit; Grb2 FL, Grb2 SH2, CrkII SH2, CrkII FL monomer or dimer as analytes; Biacore 8K+, 20 °C, HBS-TP with NaCl raised to 500 mM; 1 M NaCl regeneration; steady state.
PEAK1^IDR1 (residues 1082-1746), from insect cells, phosphorylated by Src (human), sequence (Q9H792 1082-1746): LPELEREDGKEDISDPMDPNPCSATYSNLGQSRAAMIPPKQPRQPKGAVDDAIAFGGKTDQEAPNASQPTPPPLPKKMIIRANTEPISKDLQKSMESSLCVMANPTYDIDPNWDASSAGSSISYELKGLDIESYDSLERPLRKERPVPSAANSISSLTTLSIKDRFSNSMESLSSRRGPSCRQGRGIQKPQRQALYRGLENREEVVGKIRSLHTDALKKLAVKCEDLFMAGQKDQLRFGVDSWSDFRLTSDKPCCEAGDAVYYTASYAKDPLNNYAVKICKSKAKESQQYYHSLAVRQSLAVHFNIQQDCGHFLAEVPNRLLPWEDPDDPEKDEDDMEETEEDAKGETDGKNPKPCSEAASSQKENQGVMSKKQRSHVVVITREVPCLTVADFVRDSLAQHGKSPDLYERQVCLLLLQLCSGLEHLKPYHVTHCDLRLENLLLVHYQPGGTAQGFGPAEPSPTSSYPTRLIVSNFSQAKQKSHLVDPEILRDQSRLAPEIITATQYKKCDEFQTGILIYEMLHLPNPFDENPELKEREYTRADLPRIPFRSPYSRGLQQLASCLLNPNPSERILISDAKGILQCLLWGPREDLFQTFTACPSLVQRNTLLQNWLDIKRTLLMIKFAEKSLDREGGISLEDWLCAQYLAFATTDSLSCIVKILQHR
Test [3] addresses PEAK2^IDR1 (residues 802-1406), from insect cells, phosphorylated by Src (human) (UniProt Q86YV5). The test is described as above.
Test [4] concerns the target full length PEAK3 (PEAK3^FL, residues 1-473), from insect cells, phosphorylated by Src (human) (UniProt Q6ZS72). Described as above.
Test [5] deals with 14-3-3ε (residues 1-255) (human) (UniProt P62258). Nature of the test: SPR; 14-3-3 isoforms amine coupled to a CM5 chip, tandem peptides as analytes (10 µM-10 nM for PEAK3 tandem-pS69, 20 µM-20 nM for all others); Biacore S200, 20 °C, HBS-TP; steady state, 1:1 model.
14-3-3ε (residues 1-255) (human), sequence (P62258 whole entry, the tested form may be a part, canonical isoform): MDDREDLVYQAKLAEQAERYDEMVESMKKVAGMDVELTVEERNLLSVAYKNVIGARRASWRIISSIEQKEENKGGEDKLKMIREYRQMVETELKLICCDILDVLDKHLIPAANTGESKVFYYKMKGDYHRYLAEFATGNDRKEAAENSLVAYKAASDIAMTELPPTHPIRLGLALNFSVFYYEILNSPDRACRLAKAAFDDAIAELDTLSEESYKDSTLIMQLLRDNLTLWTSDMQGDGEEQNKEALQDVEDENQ
Test [6] addresses 14-3-3γ (residues 1-247) (human). Described as above.
For test [7], the target named is 14-3-3η (residues 1-246) (human). The test is described as above.
In the next test the target is 14-3-3γ 1-247 (UniProt P61981). Nature of the test: SPR, immobilized 14-3-3γ. The note with it: reference: non-phosphorylated PEAK1tandem peptide; sites T1165. (Surface plasmon resonance follows binding to a sensor surface in real time, without labels.)
In the next test the target is 14-3-3ε 1-255 (UniProt P62258). Nature of the test: SPR, immobilized 14-3-3ε.
For a further test, the target named is 14-3-3η 1-246 (UniProt Q04917). In words: SPR, immobilized 14-3-3η.
Test [8] has as its target 14-3-3σ (Methods: 14-3-3ς, with an accession that is 14-3-3ζ) 1-245. Nature of the test: SPR, immobilized 14-3-3σ.
In test [9] the target is PEAK3^(tandem, 54–74)pS69:14-3-3γ complex (human). In words: ITC; ternary, sequential; CrkII^NSH3 (400 μM, syringe) titrated into the peptide (16.8 µM) left in the cell after a first titration with 14-3-3ɣ; 25 °C, 20 mM HEPES pH 7.4, 150 mM NaCl, 1 mM TCEP.
The target in test [10] is PEAK3tandem-pS69 peptide (residues 54-74) (human). In words: ITC; 25 °C, peptide (20 µM) in the cell, protein in the syringe, sequential titrations; 20 mM HEPES pH 7.4, 150 mM NaCl, 1 mM TCEP; single binding site model.
The target of test [11] is PEAK3^tandem-pS69 peptide (residues 54–74, phosphorylated at S69) (human). In words: ITC; binary; peptide (20 μM) in the cell, protein in the syringe (14-3-3ɣ 200 μM; CrkII^NSH3 140 or 400 μM); 25 °C, 20 mM HEPES pH 7.4, 150 mM NaCl, 1 mM TCEP; single site model.
Test [12] has as its target PEAK3 SH2-pY peptide 23-29 (Homo sapiens) (UniProt Q6ZS72). In words: ITC. The note with it: cited from earlier work.
Test [13] has as its target PEAK1^IDR1 (residues 1082-1746), from insect cells (human) (UniProt Q9H792). In words: SPR; biotinylated PEAK proteins (with or without Src phosphorylation) captured with a biotin CAPture kit; Grb2 FL, Grb2 SH2, CrkII SH2, CrkII FL monomer or dimer as analytes; Biacore 8K+, 20 °C, HBS-TP with NaCl raised to 500 mM; 1 M NaCl regeneration; steady state.
Another test concerns the target 14-3-3γ (human). Nature of the test: SPR; Biacore S200; 14-3-3 isoforms amine coupled to CM5, peptides injected (10 µM–10 nM for PEAK3^tandem-pS69, 20 µM–20 nM for other peptides); 20 °C, HBS-TP; steady-state 1:1 fit.
For test [14], the target named is PEAK3 tandem-pS69 peptide (residues 54-74) (human). In words: ITC; binary; peptide in the cell (20 µM, or 16.8 µM after a buffer titration), protein in the syringe; 25 °C, 20 mM HEPES pH 7.4, 150 mM NaCl, 1 mM TCEP; single binding site model.
The target of test [15] is PEAK2^IDR1 (human PEAK2 residues 802–1406) (human) (UniProt Q86YV5). Nature of the test: SEC-MALS; purified PEAK2^IDR1:CrkII^FL dimer complex (170 μg), Superdex 200 Increase 10/300, 20 mM HEPES pH 7.5, 150 mM NaCl, 1 mM TCEP. A general note: Size exclusion chromatography separates by hydrodynamic size, large species first.
PEAK2^IDR1 (human PEAK2 residues 802–1406) (human), sequence (Q86YV5 802-1406): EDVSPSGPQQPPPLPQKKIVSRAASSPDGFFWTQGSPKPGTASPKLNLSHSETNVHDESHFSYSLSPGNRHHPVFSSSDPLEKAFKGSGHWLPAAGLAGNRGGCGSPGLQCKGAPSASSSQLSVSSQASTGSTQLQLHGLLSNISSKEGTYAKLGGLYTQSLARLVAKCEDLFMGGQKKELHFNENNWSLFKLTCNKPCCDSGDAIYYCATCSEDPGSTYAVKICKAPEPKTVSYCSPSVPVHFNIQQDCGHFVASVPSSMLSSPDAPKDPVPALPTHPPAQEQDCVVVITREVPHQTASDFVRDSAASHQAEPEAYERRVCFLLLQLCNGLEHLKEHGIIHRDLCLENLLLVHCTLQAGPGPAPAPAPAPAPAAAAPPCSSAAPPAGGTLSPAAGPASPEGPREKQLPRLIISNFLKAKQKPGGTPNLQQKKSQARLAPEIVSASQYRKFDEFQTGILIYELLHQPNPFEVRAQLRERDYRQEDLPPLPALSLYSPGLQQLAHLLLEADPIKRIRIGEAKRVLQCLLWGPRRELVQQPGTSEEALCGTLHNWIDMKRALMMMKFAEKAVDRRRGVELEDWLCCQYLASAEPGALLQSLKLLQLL
Test [16] deals with full length CrkII, dimer (CrkII^FL dimer) (human) (UniProt P46108). Nature of the test: SEC; single purified proteins on Superdex 200 (purification and re-runs), 20 mM HEPES pH 7.5–8.5, 150 mM NaCl, 1 mM TCEP; oligomeric state.
The mark [17] stands for this setting: reference: non-phosphorylated PEAK1tandem peptide, sites T1165.
Setting [18] is: reference: non-phosphorylated PEAK3tandem peptide, sites S69.

What is called Kd is the free concentration of one partner at which half of the binding sites on the other are occupied at equilibrium, for simple one-to-one binding. Broadly, the stoichiometry N is a count of units in the complex or per binding partner.

Bounds are passed on as bounds.

PEAK2 tandem-pS826 peptide (residues 812-831), sequence (peptide): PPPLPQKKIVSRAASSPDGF
PEAK1^IDR1 (residues 1082-1746), from insect cells (human), sequence (Q9H792 1082-1746): as the sequence (Q9H792 1082-1746) above
PEAK3 SH2-pY peptide 23-29 (Homo sapiens), sequence (Q6ZS72 whole entry, looked up, the tested form may be a part): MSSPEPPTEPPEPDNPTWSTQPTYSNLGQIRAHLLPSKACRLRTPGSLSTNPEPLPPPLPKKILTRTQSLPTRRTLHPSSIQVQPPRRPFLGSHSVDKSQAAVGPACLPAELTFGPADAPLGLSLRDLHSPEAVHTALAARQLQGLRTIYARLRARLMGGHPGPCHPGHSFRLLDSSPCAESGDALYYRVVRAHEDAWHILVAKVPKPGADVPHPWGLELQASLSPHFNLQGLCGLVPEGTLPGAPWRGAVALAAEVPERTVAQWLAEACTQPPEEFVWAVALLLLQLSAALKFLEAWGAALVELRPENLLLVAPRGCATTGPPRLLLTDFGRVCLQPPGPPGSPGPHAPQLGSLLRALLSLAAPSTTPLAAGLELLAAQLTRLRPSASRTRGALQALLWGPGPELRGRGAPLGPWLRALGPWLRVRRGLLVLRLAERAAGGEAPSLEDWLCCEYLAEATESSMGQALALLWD
full length PEAK3 (PEAK3^FL, residues 1-473), from insect cells, phosphorylated by Src (human), sequence (Q6ZS72 whole entry, the tested form may be a part, canonical isoform): as the sequence (Q6ZS72 whole entry, looked up, the tested form may be a part) above
PEAK2^IDR1 (residues 802-1406), from insect cells, phosphorylated by Src (human), sequence (Q86YV5 802-1406): as the sequence (Q86YV5 802-1406) above

“CrkII N-terminal SH3 domain (CrkII^NSH3, residues 134-191) (from UniProt P46108-1 134-191) (domain or fragment)”: in [1], the Kd turned out to be 3.26 µM and the stoichiometry N was determined as 0.69. As for “CrkII SH2 domain (CrkII^SH2, residues 6-120) (from UniProt P46108-1 6-120) (domain or fragment)”, the Kd is 12.5 µM in test [2], 21 µM in test [3] and 48 µM in [4]. Turning to “PEAK1 tandem peptide, non-phosphorylated (residues 1152-1171)”, the Kd in test [5] was over 100 µM. As to “PEAK2 tandem-pS826 peptide (residues 812-831)”, the Kd came to 1.35 µM in [6], 7.42 µM in [5] and 1.94 µM in [7]. On to “PEAK1 1152-1171 (from UniProt Q9H792) PEAK1tandem-pT1165 peptide”, for which the “binding against the reference” value (in the test with 14-3-3γ 1-247; in the test with 14-3-3ε 1-255 (setting [17]); in the test with 14-3-3η 1-246 (setting [17]); in test [8] (setting [17])) was “stronger” each time. Substance “CrkII NSH3 domain (CrkII^NSH3, residues 134–191) (from UniProt P46108-1 134-191) (domain or fragment)” came in with a Kd in test [9] of 3.6 µM. On to “PEAK2 tandem peptide, non-phosphorylated (residues 812-831)”, for which the Kd in test [6], in [5] and in [7] was over 100 µM each time. Take 14-3-3γ (natural protein): the Kd was determined as 0.126 µM in [10] and 0.13 µM in test [11]. Regarding “PEAK1 tandem-pT1165 peptide (residues 1152-1171)”, the Kd in test [5] is 5.39 µM. On to CrkII (from UniProt P46108), for which the Kd in [12] is 7.8 µM. “full length Grb2 (Grb2^FL, residues 1-217) (from UniProt P62993-1 1-217) (natural protein)”: the Kd in test [13] was over 50 µM; in test [2], 4.3 µM. “PEAK3 54-74 (from UniProt Q6ZS72) PEAK3tandem-pS69 peptide”: the “binding against the reference” value (with 14-3-3ε 1-255 (setting [18]); with 14-3-3η 1-246 (setting [18]); in [8] (setting [18])) was “stronger” throughout. “PEAK3 tandem-pS69 peptide (residues 54-74)” had a Kd in test [5] of 0.78 µM. As for “PEAK3^tandem peptide, non-phosphorylated (residues 54–74; Ac-…-NH2)”, the Kd in the test with 14-3-3γ (human) is over 10 µM. Consider “14-3-3γ (gamma) (K50E) (natural protein)”, for which, in test [14], the Kd turned out to be 5.99 µM and the stoichiometry N was found to be 0.726. As to “full length CrkII, dimer (CrkII^FL dimer) (from UniProt P46108-1 1-304) (natural protein)”, the stoichiometry N (CrkII chains per PEAK2 chain (2:2)) in test [15] was 1. In test [16], this substance showed a percent of the isolated protein that is dimer of 10%. As to “PEAK3 tandem peptide, non-phosphorylated (residues 54-74)”, in [5], the Kd is over 100 µM.

Source of the values: publication PMC10279719.
